Measured values taken from publication PMC10923870, “A three-level regulatory mechanism of the aldo-keto reductase subfamily AKR12D” (Nature Communications, 2024).

Experiments:
AKRtyl = biological target: T1, AKRtyl (Streptomyces xinghaiensis, UniProt A0A3R7J519); assay: X-ray crystal structure ([…] Å), equilibrium tryptophan fluorescence quenching and stopped-flow; type: binding
T1 construct: gene SFRA_012675; N-terminally His6-tagged AKRtyl, octamer

AKR_coelicolor = biological target: T2, AKR_coelicolor (Streptomyces coelicolor, UniProt Q9F2Z5); assay: steady-state kinetics, inhibition at high NADPH concentration; type: biochemical
T2 construct: gene SCO4352
T2 sequence (Q9F2Z5 1-330): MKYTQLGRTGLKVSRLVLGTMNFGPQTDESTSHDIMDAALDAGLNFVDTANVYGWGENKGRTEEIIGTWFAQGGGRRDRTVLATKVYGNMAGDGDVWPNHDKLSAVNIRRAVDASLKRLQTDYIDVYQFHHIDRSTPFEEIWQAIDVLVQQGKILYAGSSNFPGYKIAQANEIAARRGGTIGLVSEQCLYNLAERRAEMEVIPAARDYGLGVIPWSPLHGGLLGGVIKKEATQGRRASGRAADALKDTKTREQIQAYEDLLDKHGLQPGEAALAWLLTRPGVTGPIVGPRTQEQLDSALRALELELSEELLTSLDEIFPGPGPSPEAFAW

[1] = test system: NC(=O)C1=CN([C@@H]2O[C@H](COP(=O)(O)OP(=O)(O)OC[C@H]3O[C@@H](n4cnc5c(N)ncnc54)[C@H](OP(=O)(O)O)[C@@H]3O)[C@@H](O)[C@H]2O)C=CC1; assay: tryptophan fluorescence quenching (equilibrium and stopped-flow); steady-state kinetics (Km); type: biochemical, Streptomyces xinghaiensis; conditions: Trp331 of the C-terminal tail loop contributes to binding of both NADPHs; varied: cofactor
[2] = biological target: the molecule itself; assay: crystal structure; sitting-drop vapour diffusion at 20 °C; AKRtyl at 10 mg/ml in 10 mM Tris-HCl pH 7.5, 150 mM NaCl; purified-state, apo, NADP(H), NADP+-tylosin and tylosin forms, all octameric

## NC(=O)C1=CN([C@@H]2O[C@H](COP(=O)(O)OP(=O)(O)OC[C@H]3O[C@@H](n4cnc5c(N)ncnc54)[C@H](OP(=O)(O)O)[C@@H]3O)[C@@H](O)[C@H]2O)C=CC1 [NADPH]
AKRtyl
  Kd: 450 nM
AKR_coelicolor
  steady-state kinetics, inhibition at high NADPH concentration: inhibition by the cofactor NADPH at high concentrations was also observed for these two AKRs

## AKRtyl (Streptomyces xinghaiensis; W331A)
[1]
  K0.5: 11.03 µM
  kcat: 0.18 ± 0.01 s⁻¹
  kcat/Km: 16300 M⁻¹ s⁻¹

B1: AKRtyl (tylosin reductase, aldo-keto reductase AKR12D1) (enzyme, S. fradiae)
chain: MEYTQLGRIGLKVSRLVLGTMNFGPTTDEAESHAIMDAALDAGINFFDTANVYGWGENKGRTEEILGSWFAQGGDRRDKVVLATKVYGNMGLDGPAWPNHDKLSALNIRRSVDASLKRLGTDHIDLYQFHHVDRDTPWDEIWQAMDVLVRQGKILYVGSSNFAGWNIAQANETAARHGRLGLVSEQCLYNLCERRAEMEVVPAAREYGLGVIAWSPLHGGLLGGAIRKEQEGGNRRAASGRAADALKDPQQREQIQRYEDLLDKHGLEPGEVALAWLLTRPGVTGPIVGPRTADQLASAVRAAELTLTDEVLTALDEIFPGPGPSPEAFAW
notes: AKRtyl, tylosin reductase of the tylosin producer S. fradiae, UniProt A0A3R7J519; protein coding gene cloned into pET28a between NdeI and XhoI; Octamer made of two homotetramers; also called WT; source: E. coli BL21 (DE3), purified (Ni-NTA, size-exclusion chromatography on Superdex 200 increase)
[2]
  stoichiometry N: 8
